Values of other authors in PMC7109175.

Biological target: cMyBP-C (Mus musculus) (UniProt O70468)
Chain of UniProt O70468 (O70468 whole entry): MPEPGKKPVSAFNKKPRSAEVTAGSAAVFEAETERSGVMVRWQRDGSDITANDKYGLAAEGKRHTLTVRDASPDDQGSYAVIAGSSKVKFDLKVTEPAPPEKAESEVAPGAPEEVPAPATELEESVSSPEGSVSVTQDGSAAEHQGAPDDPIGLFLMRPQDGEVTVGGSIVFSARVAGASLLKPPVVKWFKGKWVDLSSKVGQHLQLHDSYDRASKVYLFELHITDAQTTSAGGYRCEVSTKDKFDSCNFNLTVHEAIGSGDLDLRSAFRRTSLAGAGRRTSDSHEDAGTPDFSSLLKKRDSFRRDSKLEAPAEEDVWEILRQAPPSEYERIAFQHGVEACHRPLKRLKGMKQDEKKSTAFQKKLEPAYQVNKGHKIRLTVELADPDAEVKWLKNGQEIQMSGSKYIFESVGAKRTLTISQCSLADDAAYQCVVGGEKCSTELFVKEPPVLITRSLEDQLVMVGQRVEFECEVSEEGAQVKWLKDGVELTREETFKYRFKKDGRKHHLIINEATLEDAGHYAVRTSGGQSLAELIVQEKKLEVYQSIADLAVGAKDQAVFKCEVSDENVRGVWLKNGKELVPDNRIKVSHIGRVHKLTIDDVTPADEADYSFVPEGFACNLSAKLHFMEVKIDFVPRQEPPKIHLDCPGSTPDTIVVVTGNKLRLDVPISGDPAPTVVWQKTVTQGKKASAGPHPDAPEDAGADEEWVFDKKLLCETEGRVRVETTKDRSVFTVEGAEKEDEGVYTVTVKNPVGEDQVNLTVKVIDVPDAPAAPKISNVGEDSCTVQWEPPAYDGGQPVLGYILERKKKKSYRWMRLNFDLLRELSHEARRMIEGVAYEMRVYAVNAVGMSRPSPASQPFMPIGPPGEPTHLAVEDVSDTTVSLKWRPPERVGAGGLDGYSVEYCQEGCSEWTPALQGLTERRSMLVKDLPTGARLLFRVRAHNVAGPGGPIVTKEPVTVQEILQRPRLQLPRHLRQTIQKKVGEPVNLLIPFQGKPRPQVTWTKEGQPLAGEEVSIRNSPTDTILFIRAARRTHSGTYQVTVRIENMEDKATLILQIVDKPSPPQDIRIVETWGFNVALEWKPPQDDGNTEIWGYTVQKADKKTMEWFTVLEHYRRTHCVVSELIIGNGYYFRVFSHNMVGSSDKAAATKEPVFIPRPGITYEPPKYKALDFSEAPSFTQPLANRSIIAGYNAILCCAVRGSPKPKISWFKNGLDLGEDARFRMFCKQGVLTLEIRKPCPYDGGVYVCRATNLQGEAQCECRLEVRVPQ

Fhod3 (from UniProt Q76LL6)
Kd: 800 nM
